Results on 13 proteins are retold here after patent publication US20250027068.

The chains are these.
B1: PRT-552 (protein)
chain: MANQEIRYSEETPKTITSVWTKGVTPPTDFIQNEDVLHAPYIANQGWYDITKTFNGKDDLLCGAATAGNMLHWWFDQNKEEIENYLKKHPEKQKINFNGEQMFDVKEAIDTKDSQTDSALFEYFKDKAFPYLSTKHLGVFPDHVIDMFINGYRLSLTNHGPTPVKRGTKDPRGGIFDAVFTRGDQSKLLTARHDFKEKTLNEISDLIKQELTEGKALGLSHTYANVRINHVINLWGADFNSEGNLEAIYVTDSDSNASIGMKKYYVGVNAAGKVAISAKEIEGDNIGAQVLGLFTLSTGQDIWNQTNLEHHHHHH
B2: PRT-597 (protein)
chain: MANQEIRYSEETPSTITSVWTKGVTPPTDFIQNEDVLHAPYIANQGWYDITKTFNGKDDLLCGAATAGNMLHWWFDQNKEQIENYLKKHPEKQKINFNGEQMFDVKEAIDTKDSQTDSALFEYFKDKAFPYLSTKHLGVFPDHVIDMFINGYRLSLTNHGPTPVKRGTKDPRGGIFDAVFTRGDQSKLLTSRHDFKEKTLNEISDLIKQELTEGKALGLSHTYANVRINHVINLWGADFNANGNLEAIYVTDSDSNASIGMKKYYVGVNSAGKVAISAKEIEGDNIGAQVLGLFTLSTGQDIWNQTNLEHHHHHH
B3: PRT-558 (protein)
chain: MANQEIRYSEETPSTITSIWTKGVTPPTQFIQNEDVLHAPYIANQGWYDITKTFNGKDDLLCGAATAGNMLHWWFDQNKTEIENYLTKHPEKQKINFNGEQMFDVKEAIDTKDSQTDSALFSYFKDKAFPYLSTKHLGVFPDHVIDMFINGYRLSLTNHGPTPVKRGTKDPRGGIFDAVFTRGDQTKLLTARHDFKEKTLNEISDLIKQELTEGKALGLSHTYANVRINHVINLWGADFNSEGNLEAIYVTDSDSNASIGMKKYYVGVNAAGKVAISAKEIEGDNIGAQVLGLFTLSTGQDIWQQTNLEHHHHHH
B4: PRT-277 (protein)
chain: MVTSVWTKGVTPPTDFIYGEDVLHAPYKAGQGWYDITKLFNGKDNLLCGAATAGNMLHWWFDQNKEQIENYLKKHPEKQKIIFNNQELFDLKAAIDTKDSQLDSKLFEYFLEKAFPNLSTKHLGVFPDHVIDMFINGYRLSLLNHGPTPVKRGSKDKRGGIFDAVFTRGVQSKLLTNRHDLKNKTLKEISDLIKQELTEGKALGISHTYANGRINHVINLWGADFDAEGNLEAIAVTDSDTNASIGMKKYFVGVNSSGKVAISAKEIEEDNIGAQVLGLFTLSTGQDIWNQTN
B5: PRT-579 (protein)
chain: MANQEIRYSKATPSHITSVWTKGVTPPENFIYNEDVLHAPYLPNQGWYDITKTFNGKDDLLCGAATAGNMLHWWFDQNKEQIERYLKEHPEKQKINFNGEQMFDVKEAIDTKDSQTNSKLFEYFKDKAFPYLSTKHLGVFPDHVIDMFINGYRLSLTNHGPTPVKEQNKDPRGGIFDAVFTRGDQSKLLTSRHDFKEKTLNEISQLIKQELTEGKALGLSHTYANVRINHVINLWGADFNAEGNLEAIYVTDSDSNASIGMKKYYVGVNSAGKVAISAKEIEGDNIGAQVLGLFTLSTGQDIWQQTNLEHHHHHH
B6: PRT-285 (protein)
chain: MVTSVWTKGVTPPAKFTQGEDVFHAPYDANQGWYDITKTFNGKDDLLCGAATAGNMLHWWFDQNKEKIEAYLKKHPDKQKIMFGDQELLDVRKVINTKGDQTNSELFNYFRDKAFPGLSARRIGVMPDLVLDMFINGYYLNVYKTQTTDVNRTYQEKDRRGGIFDAVFTRGDQSKLLTSRHDFKEKNLKEISDLIKKELTEGKALGLSHTYANVRISHVINLWGADFDSNGNLKAIYVTDSDSNASIGMKKYGVGVNSAGKVAISAKEIKEDNIGAQVLGLFTLSTGQDSWNQTN
B7: PRT-529 (protein)
chain: MANQEIRYSEETPKTITSVWTKGVTPPTDFIKNEDVLHAPYIANQGWYDITKTFNGKDDLLCGAATAGNMLHWWFDQNKEEIENYLKKHPEKQKINFNGEQMFDVKEAIDTKDSQTDSALFEYFKDKAFPNLSTKHLGVMPDLVLDMFINGYYLSLGKHGPTPVKRGTKDPRGGIFDAVFTRGDQTKLLTARHDFKEKTLNEISDLIKQELTEGKALALSHTYANVRINHVINLWGADFNSEGNLEAIYVTDSDSNASIGMKKYYVGVNAAGKVAISAKEIEGDNIGAQVLGLFTLSTGQDIWEQTNLEHHHHHH
B8: PRT-601 (protein)
chain: MANQEIRYSEETPSTVTSVWTKGVTPPTDFIQNEDVLHAPYIANQGWYDITKTFNGKDDLLCGAATAGNMLHWWFDQNKEQIKNYLKKHPEKQKINFNGEQMFDVKEAIDTKNHQLDSALFEYFKDKAFPYLSTKHLGVFPDHVIDMFINGYRLSLTNHGPTPVKRGTKDPRGGIFDAVFTRGDQSKLLTSRHDFKEKNLNEISDLIKKELTEGKALGLSHTYANVRINHVINLWGADFNANGNLEAIYVTDSDSNASIGMKKYFVGVNSAGKVAISAKEIKGDNIGAQVLGLFTLSTGQDSWNQTNLEHHHHHH
B9: PRT-589 (protein)
chain: MRNQTTTYSEVTPSHITSVWTKGVTPPEQFIQGEDVFHAPYIANQGWYDITKTFNGKDDLLCGAATAGNMLHWWFDQNKEQIENYLKKHPEKQKINFNNEEMFDVREAINTKDSQTDSALFSYFKDKAFPYLSAKHLGVFPDHVIDMFINGYRLSLTNHDKTDVNRGTKDPRGGIFDAVFTRGDQSKLLTARHDFKNKTLKEISDLIKQELTEGKALGLSHTYANVRINHVINLWGADFDAEGNLEAIYVTDSDSNASIGMKKYYVGVNSAGKVAISAKKIEGDNIGAQVLGLFTLSTGQDIWQQTNLEHHHHHH
B10: PRT-539 (protein)
chain: MANQEIRYSKNENPNVTIKWVHGIGEPTQAEKEKIEFYWYETNTTKFFNNRKVTHLGDSNQCWAKTASNMLHWWFEQNKENINKYIEKKNITGKINFNGEQMFDVKEGIDDNQEKEKSYIANTFRTKKAHNLSTKHKGDYIISGLAWYLYGLNNFKNAHGPTPVKKKPKFYGPALFKDVFNRGDGNTPIKEETDFKEYTKKEFEDILKEALDSKKAIGINIYGSNVGYGHAITLWGAAFDEDNNIIAIYVVDNNFKFENRIFPYGIWYEKEGRPYLFNYEINSFVKNRYVGEITTLDKGEAQWQETNLEHHHHHH
B11: PRT-38 (protein)
chain: MANQEIRYSEVTPYHVTSVWTKGVTPPANFTQGEDVFHAPYVANQGWYDITKTFNGKDDLLCGAATAGNMLHWWFDQNKDQIKRYLEEHPEKQKINFNGEQMFDVKEAIDTKNHQLDSKLFEYFKEKAFPYLSTKHLGVFPDHVIDMFINGYRLSLTNHGPTPVKEGSKDPRGGIFDAVFTRGDQSKLLTSRHDFKEKNLKEISDLIKKELTEGKALGLSHTYANVRINHVINLWGADFDSNGNLEAIYVTDSDSNASIGMKKYFVGVNSAGKVAISAKEIKEDNIGAQVLGLFTLSTGQDSWNQTN
B12: PRT-40 (protein)
chain: MANQEIRYSEVTPYHVTSVWTKGVTPPANFTQGEDVFHAPYVANQGWYDITKTFNGKDDLLCGAATAGNMLHWWFDQNKDQIKRYLEEHPEKQKINFNGEQMFDVKEAIDTKNHQLDSKLFEYFKEKAFPYLSTKHLGVFPDHVLDMFINGYRLSLTNHGPTPVKEGSKDPRGGIFDAVFTRGDQSKLLTSRHDFKEKNLKEISDLIKKELTEGKALGLSHTYANVRINHVINLWGADFDSNGNLKAIYVTDSDSNASIGMKKYFVGVNSAGKVAISAKEIKEDNIGAQVLGLFTLSTGQDSWNQTN
B13: PRT-39 (protein)
chain: MANQEIRYSEVTPYHVTSVWTKGVTPPANFTQGEDVFHAPYVANQGWYDITKTFNGKDDLLCGAATAGNMLHWWFDQNKDQIKRYLEEHPEKQKINFNGEQMFDVKEAIDTKNHQLDSKLFEYFKEKAFPYLSTKHLGVFPDHVIDMFINGYRLSLTNHGPTPVKEGSKDPRGGIFDAVFTRGDQSKLLTSRHDFKEKNLKEISDLIKQELTEGKALGLSHTYANVRINHVINLWGADFDSNGNLKAIYVTDSDSNASIGMKKYFVGVNSAGKVAISAKEIKEDNIGAQVLGLFTLSTGQDSWNQTN

The target in the series is pooled human IgG.
In turn, B1 came in with an Enzyme Activity Endpoint Assay: Fab′2 of 439 ng/µL, an Enzyme Activity Endpoint Assay: Fc of 294 ng/µL, an Enzyme Activity Endpoint Assay: IgG of 45 ng/µL and an Enzyme Activity Endpoint Assay: scIgG of 264 ng/µL.

The protein B2 displayed an Enzyme Activity Endpoint Assay: Fab′2 of 603 ng/µL, an Enzyme Activity Endpoint Assay: Fc of 315 ng/µL, an Enzyme Activity Endpoint Assay: IgG of 0 ng/µL and an Enzyme Activity Endpoint Assay: scIgG of 0 ng/µL.

B3 registered an Enzyme Activity Endpoint Assay: Fab′2 of 700 ng/µL, an Enzyme Activity Endpoint Assay: Fc of 281 ng/µL, an Enzyme Activity Endpoint Assay: IgG of 0 ng/µL and an Enzyme Activity Endpoint Assay: scIgG of 0 ng/µL.

With B4, the Enzyme Activity Endpoint Assay: Fab′2 amounted to 19 ng/µL, the Enzyme Activity Endpoint Assay: Fc was 160 ng/µL, the Enzyme Activity Endpoint Assay: IgG is 401 ng/µL and the Enzyme Activity Endpoint Assay: scIgG came out at 705 ng/µL.

For B5, the Enzyme Activity Endpoint Assay: Fab′2 was determined as 816 ng/µL, the Enzyme Activity Endpoint Assay: Fc is 450 ng/µL, the Enzyme Activity Endpoint Assay: IgG came to 0 ng/µL and the Enzyme Activity Endpoint Assay: scIgG came out at 0 ng/µL.

With B6, the Enzyme Activity Endpoint Assay: Fab′2 amounted to 0 ng/µL, the Enzyme Activity Endpoint Assay: Fc is 0 ng/µL, the Enzyme Activity Endpoint Assay: IgG worked out at 1320 ng/µL and the Enzyme Activity Endpoint Assay: scIgG amounted to 0 ng/µL.

B7: the Enzyme Activity Endpoint Assay: Fab′2 was determined as 0 ng/µL, the Enzyme Activity Endpoint Assay: Fc was determined as 177 ng/µL, the Enzyme Activity Endpoint Assay: IgG was found to be 508 ng/µL and the Enzyme Activity Endpoint Assay: scIgG came to 350 ng/µL.

As to B8, the Enzyme Activity Endpoint Assay: Fab′2 was determined as 720 ng/µL, the Enzyme Activity Endpoint Assay: Fc was 529 ng/µL, the Enzyme Activity Endpoint Assay: IgG turned out to be 0 ng/µL and the Enzyme Activity Endpoint Assay: scIgG is 0 ng/µL.

Protein B9 had an Enzyme Activity Endpoint Assay: Fab′2 of 863 ng/µL, an Enzyme Activity Endpoint Assay: Fc of 352 ng/µL, an Enzyme Activity Endpoint Assay: IgG of 0 ng/µL and an Enzyme Activity Endpoint Assay: scIgG of 0 ng/µL.

Protein B10 showed an Enzyme Activity Endpoint Assay: Fab′2 of 0 ng/µL, an Enzyme Activity Endpoint Assay: Fc of 0 ng/µL, an Enzyme Activity Endpoint Assay: IgG of 1400 ng/µL and an Enzyme Activity Endpoint Assay: scIgG of 0 ng/µL.

B11 yielded an Enzyme Activity Endpoint Assay: Fab′2 of 46 ng/µL, an Enzyme Activity Endpoint Assay: Fc of 124 ng/µL, an Enzyme Activity Endpoint Assay: IgG of 14 ng/µL and an Enzyme Activity Endpoint Assay: scIgG of 15 ng/µL.

For B12, the Enzyme Activity Endpoint Assay: Fab′2 turned out to be 42 ng/µL, the Enzyme Activity Endpoint Assay: Fc came to 108 ng/µL, the Enzyme Activity Endpoint Assay: IgG was determined as 14 ng/µL and the Enzyme Activity Endpoint Assay: scIgG amounted to 13 ng/µL.

B13 came in with an Enzyme Activity Endpoint Assay: Fab′2 of 39 ng/µL, an Enzyme Activity Endpoint Assay: Fc of 116 ng/µL, an Enzyme Activity Endpoint Assay: IgG of 9 ng/µL and an Enzyme Activity Endpoint Assay: scIgG of 19 ng/µL.
